Laboratory results taken from PMC10396963, “Fibril formation and ordering of disordered FUS LC driven by hydrophobic interactions” (Nature Chemistry, 2023).

Target: the molecule itself
Assay: atomic force microscopy; film formed from 1.5 uM FUS LC at the air/PBS interface (pH 7.4), 5 h, deposited on a Si wafer and dried; 20 ± 1 °C

B1: FUS low-complexity domain (FUS LC, 1–163 amino acids) (domain or fragment, human, UniProt P35637 1-163, looked up)
chain: MASNDYTQQATQSYGAYPTQPGQGYSQQSSQPYGQQSYSGYSQSTDTSGYGQSSYSSYGQSQNTGYGTQSTPQGYGSTGGYGSSQSSQSSYGQQSSYPGYGQQPAPSSTSGSYGSSSQSSSYGQPQSGSYSQQPSYGGQQQSYGQQQSYNPPQGYGQQNQYNS
notes: Human FUS (fused in sarcoma), N-terminal QGSY-rich low-complexity domain, amino-acid residues 1-163; For FRAP 5% of the protein carried Cy3 (NHS ester); the AFM and BAM samples were unlabelled; also called fused in sarcoma low-complexity domain; wild-type FUS LC; source: E. coli, purified (solubilised in 8 M urea, Ni-NTA, cleaved with tobacco etch virus protease, exchanged to CAPS pH 11)
B1: binds.
